The record followed here is US20180185504A1 (Regeneron, published 2018).

Numbering of substitutions follows the chain as printed. In names and notes the source's numbering stands.

T1: human PRLR on cells (endogenous on T47D, T47D#11, MCF7); introduced in HEK293/hPRLR/STAT5-Luc, 293/hPRLR, … (human, UniProt P16471 25-622)
T1 construct: no tag is stated for these lines; also called prolactin receptor
T1 sequence: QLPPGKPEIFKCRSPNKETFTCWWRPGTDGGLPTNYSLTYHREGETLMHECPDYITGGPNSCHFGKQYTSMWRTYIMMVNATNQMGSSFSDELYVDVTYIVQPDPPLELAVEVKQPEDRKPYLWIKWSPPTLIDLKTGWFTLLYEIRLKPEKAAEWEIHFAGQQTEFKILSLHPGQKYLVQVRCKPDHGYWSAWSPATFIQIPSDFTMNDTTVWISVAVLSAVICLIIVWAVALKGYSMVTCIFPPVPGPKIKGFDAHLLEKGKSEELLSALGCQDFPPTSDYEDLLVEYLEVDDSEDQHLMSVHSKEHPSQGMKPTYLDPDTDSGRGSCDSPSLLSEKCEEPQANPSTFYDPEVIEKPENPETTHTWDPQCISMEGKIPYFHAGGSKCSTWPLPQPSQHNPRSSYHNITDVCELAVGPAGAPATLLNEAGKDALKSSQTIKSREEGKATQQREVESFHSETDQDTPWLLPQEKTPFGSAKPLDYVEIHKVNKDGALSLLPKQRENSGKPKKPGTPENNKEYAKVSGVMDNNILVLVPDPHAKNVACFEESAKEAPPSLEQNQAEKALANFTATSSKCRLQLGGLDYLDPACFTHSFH

T2: mouse PRLR construct with an HA tag on HEK293/mPRLR cells (mouse, UniProt Q08501 20-608)
T2 construct: whole, on cells; stably transfected into HEK293
T2 sequence (looked up): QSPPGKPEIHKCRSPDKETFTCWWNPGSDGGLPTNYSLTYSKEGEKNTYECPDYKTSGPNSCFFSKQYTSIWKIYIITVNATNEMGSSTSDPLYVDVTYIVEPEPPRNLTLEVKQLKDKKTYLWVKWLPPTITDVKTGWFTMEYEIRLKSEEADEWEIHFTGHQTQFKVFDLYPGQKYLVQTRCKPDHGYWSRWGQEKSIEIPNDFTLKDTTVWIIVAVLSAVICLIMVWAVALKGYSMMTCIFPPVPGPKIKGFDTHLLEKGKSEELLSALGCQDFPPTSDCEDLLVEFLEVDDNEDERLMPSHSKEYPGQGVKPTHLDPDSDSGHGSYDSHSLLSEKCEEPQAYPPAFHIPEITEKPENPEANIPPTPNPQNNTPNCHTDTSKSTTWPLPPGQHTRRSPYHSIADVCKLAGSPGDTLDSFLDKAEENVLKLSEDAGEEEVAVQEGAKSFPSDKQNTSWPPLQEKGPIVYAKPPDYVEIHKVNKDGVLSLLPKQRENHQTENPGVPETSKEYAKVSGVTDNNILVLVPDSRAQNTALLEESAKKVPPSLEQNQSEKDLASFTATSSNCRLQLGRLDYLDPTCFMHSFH

T3: hPRLR.mmh (soluble monomeric human PRLR) (human)
T3 construct: soluble monomeric PRLR protein
T3 chain: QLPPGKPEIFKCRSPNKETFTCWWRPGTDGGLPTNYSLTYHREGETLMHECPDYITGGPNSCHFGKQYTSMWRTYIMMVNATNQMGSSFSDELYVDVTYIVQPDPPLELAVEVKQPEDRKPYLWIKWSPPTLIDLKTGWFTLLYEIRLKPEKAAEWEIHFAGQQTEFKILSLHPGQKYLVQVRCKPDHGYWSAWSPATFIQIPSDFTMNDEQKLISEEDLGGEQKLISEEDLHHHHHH

T4: hPRLR.mFc (soluble dimeric human PRLR) (human)
T4 construct: dimeric PRLR construct
T4 chain: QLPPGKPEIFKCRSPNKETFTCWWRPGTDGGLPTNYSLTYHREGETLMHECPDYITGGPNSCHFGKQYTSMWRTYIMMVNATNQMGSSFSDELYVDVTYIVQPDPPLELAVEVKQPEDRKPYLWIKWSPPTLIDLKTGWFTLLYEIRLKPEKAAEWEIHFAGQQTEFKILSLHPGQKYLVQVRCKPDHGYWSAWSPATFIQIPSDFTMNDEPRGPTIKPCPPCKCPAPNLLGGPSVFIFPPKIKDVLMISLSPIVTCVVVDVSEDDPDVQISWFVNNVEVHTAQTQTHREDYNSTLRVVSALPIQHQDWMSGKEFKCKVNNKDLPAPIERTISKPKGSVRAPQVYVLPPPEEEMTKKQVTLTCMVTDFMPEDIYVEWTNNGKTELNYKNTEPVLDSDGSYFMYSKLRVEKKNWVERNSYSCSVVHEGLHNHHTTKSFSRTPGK

T5: mfPRLR.mmh (soluble monomeric macaca fascicularis PRLR) (macaca fascicularis)
T5 construct: soluble monomeric PRLR protein; also called macaca fascicularis (mf) PRLR.mmh; monkey PRLR
T5 chain: T3 chain with I76V, A110T, I125M, I158T, T207I

B1: H1H6800P (antibody, human IgG1, V domains shown)
VH: EVQLVESGGGLVQPGRSLRLSCAASGFTFDGYAMHWVRQGPGKGLEWVSGISWYSDTLGYADSVKGRFTISRDNAKNSLYLQMNSLRTEDTAFYYCAKISSSGWAFDYWGQGTLVTVSS
VL: EIVLTQSPGTLSLSPGERATLSCRASHSVSSAYLAWYQQKPGQTPRLLIYGTSSRATGIPDRFSGSGSGTDFTLTISRLEPEDFAVYYCQQYGSSPLFTFGPGTKVDIK
notes: human IgG1 Fc (H1H)
B2: H1H6975N (antibody, human IgG1, V domains shown)
VH: EVHLVESGGGLVQPGGSLRLSCAASGFTFSSYEMNWVRQTPGKGLEWISHISSRSVIIYYADSVKGRFTISRDNAKNSLFLQMNSLRAEDTAVYFCAGITIFGIPEYWGQGTLVTVSS
VL: EIVLTQSPATLSLSPGERATLSCRASQSVSSYFAWYQQKPGQAPRLLIYDASSRATGIPTRFSGSGSGTDFTLTISSLEPEDFAVYYCQQRSSWPITFGQGTRLEIK
notes: also called H2M6975N
B3: H1H6803P (antibody, human IgG1, V domains shown)
VH: EVQLVESGGGVVRPGGSLRLSCAASGFKFDDYGMTWVRHVPGKGLEWVSGINWNGGRTGYTDSVKGRFTISRDNAKNSLYLQMNSLRAEDTALYHCAGARRDAFDIWGQGTMVTVSS
VL: DIQMTQSPSSLSASIGDRVTITCRASQNIIKYLNWYQQNAGKAPKLLIYTASSLQSGVPSRFSGSGSGTDFTLTISSLQPEDFATYYCQQSSSSPYTFGQGTKLEIK
notes: human IgG1 Fc (H1H)

One test has as its target T1, human PRLR on cells (endogenous on …). The test can be described thus: FACS on T47D cells.
In the case of B1, the “FACS Cell Binding (Fold Above Background)” value was 41 fold.
On the same count and under the same terms, then B2, with 46 fold; and B3, with 39 fold.

The target is the same in the next test. The test can be described thus: cell-based or functional assay.
As for B1, the “% Internalization relative to Control I (T47D cells, imaging)” value came out at 198%.
On the same count and under the same terms, then B2, with 214%.
On the same count and under the same terms, then B3, with 190%.

Another test has the same target. The test can be described thus: cell-based or functional assay. The source holds these as a separate data set.
Take B1: the “IC50 of Blocking 5 nM PRL [M] (STAT5-Luc reporter, HEK293/hPRLR/STAT5-Luc cells)” value is 3.55e-10 M and the “Percent Blocking at 100 nM Antibody (STAT5-Luc reporter)” value was found to be 100%.
Taken in the same sequence, the figures for B2 were 2.41e-10 M and 100%.
Take B3: the “IC50 of Blocking 5 nM PRL [M] (STAT5-Luc reporter, HEK293/hPRLR/STAT5-Luc cells)” value was 6.27e-10 M and the “Percent Blocking at 100 nM Antibody (STAT5-Luc reporter)” value amounted to 100%.

The target of a further test is T2, mouse PRLR construct with an HA tag on …. Nature of the test: FACS on HEK293/mPRLR cells.
As to B1, the “FACS Cell Binding (Fold Above Background)” value was found to be 1 fold.
The same measure, in the same setting: then B2, with 1 fold; and B3, with 1 fold.

The next test has as its target T3, hPRLR.mmh (soluble monomeric human PRLR). The test can be described thus: SPR (Biacore), antibody capture, 37 C. As to the method: (§1) Measurements were conducted on a T200 Biacore instrument. Kinetic association (kₐ) and dissociation (kd) rate constants were determined by processing and fitting the data to a 1:1 binding model using Scrubber 2.0 curve fitting software.
(In SPR one partner is held on a chip, and binding of the other changes the refractive index at the surface.)
In general, Kd refers to the concentration at which binding is half-saturated. The low end stands for tighter binding, the high end for weaker binding. Broadly, the koff is the first-order rate constant of dissociation. What is called kon is the second-order rate constant of association. Low values mean slower complex formation, high ones faster complex formation. B1: the Kd amounted to 1.47 nM, the “T 1/2” value was 10 min, the koff is 0.00119 s⁻¹ and the kon turned out to be 808000 M⁻¹ s⁻¹.
Turning to B2, binding was put at a Kd of 1.29 nM, the “T 1/2” value was found to be 42.3 min, the koff was found to be 0.000273 s⁻¹ and the kon worked out at 211000 M⁻¹ s⁻¹.
Taken in the same sequence, the figures for B3 were 2.83 nM, 32 min, 0.000364 s⁻¹ and 129000 M⁻¹ s⁻¹.

The target in a further test is T4, hPRLR.mFc (soluble dimeric human PRLR). The test can be described thus: SPR (Biacore), antibody capture, 37 C. The method, then: as §1
Regarding B1, the equilibrium dissociation constant (Kd) was found to be 0.229 nM, the “T 1/2” value came to 79 min, the koff was found to be 0.000147 s⁻¹ and the kon was found to be 644000 M⁻¹ s⁻¹.
Taken in the same sequence, the figures for B2 were 0.184 nM, 163 min, 7.09e-05 s⁻¹ and 386000 M⁻¹ s⁻¹.
As to B3, binding was put at a Kd of 0.461 nM, the “T 1/2” value is 186 min, the off-rate (koff) was 6.2e-05 s⁻¹ and the kon worked out at 134000 M⁻¹ s⁻¹.

The next test addresses T5, mfPRLR.mmh (soluble monomeric macaca …). The test can be described thus: SPR (Biacore), antibody capture, 37 C. The method, then: as §1
As to B1, binding was characterised by a dissociation constant (Kd) of 2.48 nM, the “T 1/2” value amounted to 11 min, the koff amounted to 0.00109 s⁻¹ and the kon was determined as 439000 M⁻¹ s⁻¹.
Taken in the same sequence, the figures for B2 were 2.27 nM, 36.4 min, 0.000317 s⁻¹ and 140000 M⁻¹ s⁻¹.
Taken in the same sequence, the figures for B3 were 7.28 nM, 18 min, 0.000636 s⁻¹ and 87300 M⁻¹ s⁻¹.
